Data published in the DeepSol protein solubility set.

test: soluble on expression in E. coli; label from the status in PepcDB or PDB records

**Q.** For “MFENLTDRLSKTLKNISGKGRLTEDNIKDTLREVRMALLEADVALPVVRDFVNRVKEGAVGVEVSKSLTPGQEFIKIVRQQLEAVMGESNEALNLAAQPPAVILMAGLQGAGKTTSVGKLSKLLKERDKKKVLVVSADVYRPAAIKQLETLANDLGVDFFPSTPDQKPIDIANAAIDHAKKKFYDVLIVDTAGRLAIDEQMMAEIQALHKAINPVETLFVVDAMTGQDAADTAKAFGDALPLTGVILTKVDGDARGGAALSVRHITGKPIKFIGVGEKTDALEPFHPDRIASRILGMGDVLSLIEDLQRNVDQEKAEKLAKKFKEKKGFDLEDFREQLGQMKNMGGMMGMLDKLPGMSQLPADMKDKVDDRVFKQMEAIINSMTMKERQNPDLIKGSRKKRIAAGSGTQVQDVNRLLKQFTQMQKMMKKMQQGGMKGMMRNMQGLMGGGGRGGFGGGFFGR”, which “soluble on expression in E. coli” value is on record?
**A.** not soluble

**Q.** With “MSLSDLPDDIFQIIVKKLGDEDFNHLGPIIRSNKRGRDIGLSREILKSANLMGMCLHPPNIFPGQLFRNFFVRCLEFENATAMYYEAIRLIVREENVMGSLFLLNQLVPTYDYATIAYAFFQMCAGRGDLAGTTFDTIFEQNSVSRWGSIYSFELEVKCEALIDTIMDFQPHFGMTFAPDWKFASSDCLSISECPDWHGVEYFCEGCYIYYVALRILEVL” as the sequence, how does the “soluble on expression in E. coli” value read?
**A.** soluble

**Q.** Which “soluble on expression in E. coli” value does the source give for “MKKHIIIKTIPKKEEIISRDLCDCIYYYDNSVICKPIGPSKVYVSTSLENLEKCLQLHYFKKLVKNIEIFDEVHNSKPNCDKCLIVEIGGVYFVRRVNGVPR” here?
**A.** soluble

**Q.** With “MGSDKIHHHHHHMSIFFLNNGIMNILQEYSVLNAKVIIYEENGIGYYKVNEPNLDQNEIEILNSILEYIYSTPSVPNIEETVVKILKNKGISDQGIIEKIIYYLRKRIGYDELTVPLADPYVEEIECKGFSYPVTVVHRIVTRFPRLYTNIILEQEDHVLKVIEKLANKADKPVSIAKPYLEFSLPEGHRVAATVSREVSLPGSTFDIRKFPLKPISPISLIKNESISSLMLAYIWFLLDYKPFFLIIGSTGSGKTTLLNSILSMINPFFKVITIEDTPEINIIHDNWIRFFARQSISSQFEVSLMDLAKLSLRYRPDYLVIGEIRGKEIEALVHASASGHGSLATFHAGNPHEALTRLLSLLNKDVAKLFLQNLWGIIVLGTLRDRNGNIRRIIRSIYEIVYTRGKLRFRPVLRWSFSSNTFMPNNIDDLIKRSYRISYISKTYEIPISEITKEISNRVKTLNNFVSNNILDLEEFSVYLKKISQGDKVETKAI” as the sequence, how does the “soluble on expression in E. coli” value read?
**A.** not soluble

**Q.** Which “soluble on expression in E. coli” value does the source give for “AIAPSRQLEDPGAGTPSPVRLHALAGFQQRALCHALTFPSLQRLVYSMCSLCQEENEDMVPDALQQNPGAFRLAPALPARPHRGLSTFPGAEHCLRASPKTTLSGGFFVAVIERVEMPT” here?
**A.** soluble

**Q.** Which “soluble on expression in E. coli” value does the source give for “MKYVDGFVVAVPADKKDAYREMAAKAAPLFKEFGALRIVECWASDVPDGKVTDFRMAVKAEENEEVVFSWIEYPSKEVRDAANQKMMSDPRMKEFGESMPFDGKRMIYGGFESIIDE” here?
**A.** soluble

**Q.** Which “soluble on expression in E. coli” value does the source give for “MGSDKIHHHHHHMNVAERKKQTVVSSGISGLDEILRGGLPASNLYIVQGAPGSGKTTAALQFLRAGVALGEPCIYVSLSQTRAELEAIALSHGWTLDGIRVEELSASDSINRAADQTIFQTTELRLDETRKAIESAIEEHKPSRLVYDSLLEIRLITADSPRFRRELIAFKAFLAQRNIVALLLDTQTSETDRTGEEVDGIAHGVIRLDKSLEEYGGVRRRIEVSKMRGVPVADGYHDMAIREGEGVVVFPRIVPGAAARTVKPQLIKSGVDTLDEMFGGGQESGTTTLVIGQAGTGKSTMASLYATAALKRGESVGLFLFEERIETFFRRSEGLGMALRQFHEDGQLILRDFNPNEISPGEFGQIVQQSVNSEKVKVVVIDSFTGYLNSLPHREKAVRDIQSLLKYLARAGVLTILIVAQHGLLGQGVGIDVDVSFLGDTVLLLRIAEHEGRLRRSITVVKKRHGPHDLDVRELFIQSSGVSVIAYNPLPEV” here?
**A.** not soluble

**Q.** For “MKKEHSPKNKVRHFASVEHLNPEAVAAFVDNELSPAAAHRAKIHLVHCAECREEIHRQRRAADRLRDGNNSDMRPSSDLIAKLQSIAACCPDGPTAEEVPSSPQSLLDKLDGVARNIYKTTKTLREARNEALRQYDR”, which “soluble on expression in E. coli” value is on record?
**A.** not soluble

**Q.** With “METPVPKPRTKFEPSSPEPTLPPRPPVKPPRAVANSTAVQNFGNVLGELRLNLNETISSQDPPGIGFIEVSPGTSMSPPQRHAPPPPRPPPPAGWKQHPVIPERIQLNRPLPSLPIDVSLTPVYSEPSTSSPSSTNCYENHNSSVVENPLYLSLDTYRSISGITPSPSNAPTTSPDCDELREWLTEEEENESCSSSRPENLNASIPAPIPGDDSRPSIDSEENPYTPCPRRSDYDNSEFIGSTIDPFDDSFYTDNTTNNSHQNLYVSPQFVKEKTKSECDRYENVVEICSSPDPPPTHLYVNVPPIYPSADNIISSESDDVFRDEGKMKIDGSSITFVGFVSLTSSKKEKRLHCRLRNMQLSFHDDEDSTEPSNGTFDIKGIYLFRHMASDTPYILIHVGEKRNVISFIPEDPPNLWMFFLSEAWLSLNYGLTSVLRDADELTICGITWIKHGTTGEWKICSAGINGLTLHYMLVDAKDRIYNRNSERSDAGTSFMSTVGSIIGDELVEVDLRKVMTMRERIDKSEFCPNARHKRGPFSITLHGVTLYIDSRDDSTTSHWYEAIEALLKRPATRLENLRLTGDNIPVIVDKCIRFVSAYGMKCEGIYRRNGKVTEAKTILTKLTEDPVGYYPVHENDETVYAVADVLRQFFRKLDAPLFPSSSQADLFDLATESQSDELCARYAQLINTFELVHRSTLKKLIGHLKNVSEHAQENRASVENLAKVFAASLFLTDAMDEKVFSESYNHQINVLIHLTTGYDVVFQISIEEELSRQMVNDAEKKSFNAKKPSPDFIVAIHVWEKENRPFNVKMSLASEEVCREAIAKRGFDGPPDSPYAIFECLAGGNLIRRLPNAQKMSKCVLQWIDWNCKDAYLLFDHDKYQFNGTDMSCFTGKIKIAEPGSRTFKSYEVKIENGTSIVAFRNEKLWKAWPMDDSIWYVGTEPTRKSPNLFNATMICSTKTGYSSSRFPGFCFSFKEETDRNRWLTALSHFTKSIDSEPLVYI” as the sequence, how does the “soluble on expression in E. coli” value read?
**A.** not soluble

**Q.** Which “soluble on expression in E. coli” value does the source give for “RNRFTRRKIVYIHEGMNVPLLGYNAFGLIDRGTNLIQVRGSTGCNLSCIFCSVDEGPYSRTRNLDFVVDVDYLMKWFDWVAKEKGKGLEAHLDAQGEPLLYPYIVELVQELRSHPHVSVISMQSNGVLLDEKLVEELAEAGLDRVNLSIHSLDPEKAKMLMGMKNYDLNHVLEMAEALVNAGIDVLIAPVIIFGINDNEAEAFIEFARRIGAGKRWPALGFQNYVPYKFGRNPVIAKPVPFKEFYEWLRMLEEKTGMRPLVLKPHHFGMHPRPFIPLAFKR” here?
**A.** not soluble

**Q.** Which “soluble on expression in E. coli” value does the source give for “MNYKLTLHPGSNPVEEFTSIPHGVTSLDLSLNNLYSISTVELIQAFANTPASVTSLNLSGNSLGFKNSDELVQILAAIPANVTSLNLSGNFLSYKSSDELVKTLAAIPFTITVLDLGWNDFSSKSSSEFKQAFSNLPASITSLNLRGNDLGIKSSDELIQILAAIPANVNSLNLRGNNLASKNCAELAKFLASIPASVTSLDLSANLLGLKSYAELAYIFSSIPNHVVSLNLCLNCLHGPSLENLKLLKDSLKHLQTVYLDYDIVKNMSKEQCKALGAAFPNIQKIILVDKNGKEIHPSHSIPISNLIRELSGKADVPSLLNQCLIFAQKHQTNIEDLNIPDELRESIQTCKPLLEHHHHHH” here?
**A.** soluble

**Q.** For “MAQTVPYGIPLIKADKVQAQGFKGANVKVAVLDTGIQASHPDLNVVGGASFVAGEAYNTDGNGHGTHVAGTVAALDNTTGVLGVAPSVSLYAVKVLNSSGSGSYSGIVSGIEWATTNGMDVINMSLGGASGSTAMKQAVDNAYARGVVVVAAAGNSGNSGSTNTIGYPAKYDSVIAVGAVDSNSNRASFSSVGAELEVMAPGAGVYSTYPTNTYATLNGTSMASPHVAGAAALILSKHPNLSASQVRNRLSSTATYLGSSFYYGKGLINVEAAAQ”, which “soluble on expression in E. coli” value is on record?
**A.** soluble

**Q.** Which “soluble on expression in E. coli” value does the source give for “MLTVIAEIRTRPGQHHRQAVLDQFAKIVPTVLKEEGCHGYAPMVDCAAGVSFQSMAPDSIVMIEQWESIAHLEAHLQTPHMKAYSEAVKGDVLEMNIRILQPGI” here?
**A.** soluble

**Q.** With “MGSDKIHHHHHHKQTVSSESTEELDDASKVINYYHMSLAVLRHVANAKDINAVLGYMEQTGKVPEVDPIAPPEIAARDTAELLDPGDYFNPEVRQNLKQNYAGLFNVRTQFYDNFNKFLAYKKSKDTAKTAQLLDENYKLSVELSEYKQVIFDILSPLTEQAESELLADEPLKDQIMAMRKMSGTVQSIMNLYSRKHAMDGVRIDLKMAELEKELKAAEKIPAVTGYDEELKNFQSFLSTVKSFMNDMQKARSKGAYSDKEYQAMSEAYEYGLSVI” as the sequence, how does the “soluble on expression in E. coli” value read?
**A.** not soluble

**Q.** Which “soluble on expression in E. coli” value does the source give for “GPGSMLDEVLHSRVVQALLGALVMRELYSDAAVLLASVPPVLDTGGDTSSKDFGGIPSPLLVATRQDTLASLASFRQCVAARRWVEAVQIIDGSATAQSWAQATPLCAMVAFVRLEMDDPKAARALLLPYLASLPEPPSWEALSTAPVEHAQLWDNFTSHYVFSTTLLAKASFMSGSAYLNISAALLQRALRLSPSYAPARLFAEFVLSFEAQQQHVDAAVSASDYPKVLSVTAEMLRMPEVTRLVRAELYLVRTQAQWMRGQPLEVVHEASRCEQCDPQCALAFRLRADAFAMMSRETEAAADLAVAKHLNARVGALFDELQVQRSRRNAAQVEAKAKRNSVPAFKSFPSASAPLRSSATESFCGSTRRSGAQARMSTDTELSPSLRTHYDVLGVSSNASEAEIRRRYRRLTLQLHPDRLVGAAESDRRAALEAFQLLGNAYSVLSDTQLRATYDAGLPGLH” here?
**A.** not soluble

**Q.** Which “soluble on expression in E. coli” value does the source give for “SMPVRRVRVVKQEAGGLGISIKGGRENRMPILISKIFPGLAADQSRALRLGDAILSVNGTDLRQATHDQAVQALKRAGKEVLLEVKFIREVNTVV” here?
**A.** soluble

**Q.** With “MREVISIHIGQAGVQIGNACWELYCLEHGIQPDGQMPSDKSLGGSDDSFSTFFSETGSGRHVPRAVMVDLEPTVIDEIRTGTYRSLFHPEQLITGKEDAANNYARGHYTIGKEIIDLTLDRIRRLADNCTGLQGFLVFHSFGGGTGSGFTSLLMERLSVDYGKKAKLEFSIYPAPQVSTAVVEPYNSILTTHTTLEHSDCSFMVDNEAIYDICRRNLDIERPSYTNLNRLIGQIVSSITASLRFDGALNVDLTEFQTNLVPYPRIHFPLATFSPVISAEKAYHEQLSVAEITNMCFEPHNQMVKCDPRHGKYMAVCLLFRGDVVPKDVNAAIATIKTKRSIQFVDWCPTGFKVGINYQPPTVVPGGDLAKVPRAVCMLSNTTAIAEAWARLDHKFDLMYAKRAFVHWYVGEGMEEGEFSEAREDLAALEKDYEEVGVDSMEDNGEEGDEY” as the sequence, how does the “soluble on expression in E. coli” value read?
**A.** not soluble

**Q.** Which “soluble on expression in E. coli” value does the source give for “MGSDKIHHHHHHMWRNAQVNWDDYRCFLTLAKTGSFSRAARLLHVDHTTVGRRVAALEVDLGIKLVERLAREVRLTAEGHDLATLGLPVEEAMASVERAAAGGGAALAGPVHISAPPGLASLLLAPKLVSLHRQYPEIKITMSSDKDFANLNRREADIALRLSRPLSNGLVARKLRDIPFFFFASHTYDIAEDDWEFITYLQADDILPQQSWLMQHIGSRTIALRCSDAASQVQAAASGLGVALLPDYLGYNDTRLRKCPSRLTPPRRELWMVVHDDIRHAPRVRVVLDFLIGILTATQDLELPHASEA” here?
**A.** not soluble

**Q.** Which “soluble on expression in E. coli” value does the source give for “MGSDKIHHHHHHMKKIGLTTTVPIEVLLSAGYTPIDLNNIFVGSKDYSKYIDIAEKDGFPKSLCAWIKGIYGACISNDIKEIVGVHDGDCSNTKALTEVLSMKGIKVYPFSYPSSHNINDVKDELDAFMNLFHVTLNQVEKIRTRLNKLRELGIEIDKLTFEDNKATALENHIWQISFSDLNGDIDAFNSDLIKTIADIKKREASSSKLRLGYIGVPPMTPDIYEFVTNFDAKIVYNEVQREFAFPRSSKAKDIYEQYFDYTYPYDVYFRIDEISRQIEERHIDGIIHYTQAFCYRAVQDIVIKEKLRVPVINIEGDRLNHLDARTKLRLEAFLDMLLDSKEGIF” here?
**A.** not soluble
